Consider 2 compounds from paper PMC7329984, “A Broad Temperature Active Lipase Purified From a Psychrotrophic Bacterium of Sikkim Himalaya With Potential Application in Detergent Formulation” (Frontiers in Bioengineering and Biotechnology, 2020).

Assay [1] deals with extracellular lipase of Chryseobacterium polytrichastri ERMR1:04 (Chryseobacterium polytrichastri ERMR1:04 (endogenous, secreted)). Nature of the assay: native gel or EMSA; 10% native PAGE of the Octyl-Sepharose purified lipase (250 kDa band) compared with 12% SDS-PAGE (39.8 kDa band). In general terms: A gel shift assay detects complexes by their altered migration in electrophoresis.

For a further assay, the system named is T1, ERMR1:04 lipase.
T1 construct: gene alpha/beta hydrolase; native extracellular enzyme purified from culture supernatant (ammonium sulfate, Sephadex G-100, Octyl-Sepharose); gene not firmly identified: MALDI top hit alpha/beta hydrolase of Solibacillus sp
As to the kind of experiment: p-nitrophenol release at […] nm; Lineweaver-Burk plot. The format is biochemical, Chryseobacterium polytrichastri. Conditions: 50 mM Tris pH 8, 37°C; 0.025-0.3 mM substrate.

In the case of “extracellular lipase of Chryseobacterium polytrichastri ERMR1:04 (enzyme)”, the stoichiometry N (in general, a count of units in the complex or per binding partner) in assay [1] was determined as 6.

Consider `CCCCCCCCCCCCCCCC(=O)Oc1ccc([N+](=O)[O-])cc1` [pNPP, p-nitrophenyl palmitate], for which the Km – broadly, the concentration of substrate that gives half-maximal velocity – in the assay on ERMR1:04 lipase is 104 µM.
